Values quoted from earlier work as cited in patent US20250341526A1, “NOVEL DYES” (Quantum-Si Incorporated, priority 2024, published 2025).
Changes are numbered by the printed parent chain. Numbers in names are those of the source.

B1: Plasmodium falciparum ClpS: ClpS amino acid recognition protein, SEQ ID NO: 110 (protein, listed as Plasmodium falciparum)
chain: MFKDLKPFFLCIILLLLLIYKCTHSYNIKNKNCPLNFMNSCVRINNVNKNTNISFPKELQKRPSLVYSQKNFNLEKIKKLRNVIKEIKKDNIKEADEHEKKEREKETSAWKVILYNDDIHNFTYVTDVIVKVVGQISKAKAHTITVEAHSTGQALILSTWKSKAEKYCQELQQNGLTVSIIHESQLKDKQKK
B2: PS393: ClpS amino acid recognition protein, SEQ ID NO: 21 (protein)
chain: MSDEDGEDGDENAVGIATRTRTRTKKPTPYRVLLLNDDYTPMEFVVLVLQRFFRMSIEDATRVMLQVHQKGVGVCGVFTYEVAETKVSQVIDFARQNQHPLQCTLEKA
B3: PS390: ClpS amino acid recognition protein, SEQ ID NO: 18 (protein)
chain: MLSIAAVTEAPSKGVQTADPKTVRKPYPNYKVIVLNDDFNTFQHVSSCLLKYIPGMSEARAWELTNQVHFEGLAVVWVGPQEQAELYYAQLKNAGLTMAPPEPA
B4: PS389: ClpS amino acid recognition protein, SEQ ID NO: 17 (protein)
chain: MLNSAAFKAASASPVIAPERSGQVTQKPYPTYKVIVLNDDFNTFQHVHDCLVKYIPGMTSDRAWQLTHQVHNDGQAIVWVGPQEQAELYHQQLSRAGLTMAPIEAA
B5: PS388: ClpS amino acid recognition protein, SEQ ID NO: 16 (protein)
chain: MVTTLSADVYGMATAPTVAPERSNQVVRKTYPNYKVIVLNDDFNTFQHVAECLMKYIPGMSSDRAWDLTNQVHYEGQAIVWVGPQEPAELYHQQLRRAGLTMAPLEAA
B6: Agrobacterium tumifaciens ClpS2 (atClpS2): ClpS amino acid recognition protein, SEQ ID NO: 94 (protein, listed as Agrobacterium tumifaciens)
chain: MSDSPVDLKPKPKVKPKLERPKLYKVMLLNDDYTPREFVTVVLKAVFRMSEDTGRRVMMTAHRFGSAVVVVCERDIAETKAKEATDLGKEAGFPLMFTTEPEE
B7: atClpS2 C72S: ClpS amino acid recognition protein, SEQ ID NO: 100 (protein)
chain: B6 chain with C72S
B8: atClpS2-V1 + C72S: ClpS amino acid recognition protein, SEQ ID NO: 101 (protein)
chain: B6 chain with R36M, E37S, C72S
B9: Synechococcus elongatus ClpS2: ClpS amino acid recognition protein, SEQ ID NO: 106 (protein, listed as Synechococcus elongatus)
chain: MSPQPDESVLSILGVPRPCVKKRSRNDAFVLTVLTCSLQAIAAPATAPGTTTTRVRQPYPHFRVIVLDDDVNTFQHVAECLLKYIPGMTGDRAWDLTNQVHYEGAATVWSGPQEQAELYHEQLRREGLTMAPLEAA
B10: PS382: ClpS amino acid recognition protein, SEQ ID NO: 15 (protein)
chain: MSDSPVIKEIKKDNIKEADEHEKKEREKETSAWKVILYNDDIHNFTYVTDVIVKVVGQISKAKAHTITVEAHSTGQALILSTWKSKAEKYCQELQQNGLTVSIIHESQLKDKQKK
B11: PS376: ClpS amino acid recognition protein, SEQ ID NO: 9 (protein)
chain: MPTNDLDLLEKQDVKIERPKMYQVVMYNDDFTPFDFVVAVLMQFFNKGMDEATAIMMQVHMQGKGICGVFPKDIAETKATEVMKWAKVEQHPLRLQVEAQA
B12: PS368: ClpS amino acid recognition protein, SEQ ID NO: 1 (protein)
chain: MASAPSTTLDKSTQVVKKTYPNYKVIVLNDDLNTFDHVANCLIKYIPDMTTDRAWELTNQVHYQGQAIVWTGPQEQAELYHQQLRREGLTMAPLEAA
B13: Thermosynechococcus elongatus ClpS: ClpS amino acid recognition protein, SEQ ID NO: 107 (protein, listed as Thermosynechococcus elongatus)
chain: MPQERQQVTRKHYPNYKVIVLNDDFNTFQHVAACLMKYIPNMTSDRAWELTNQVHYEGQAIVWVGPQEQAELYHEQLLRAGLTMAPLEPE
B14: PS391: ClpS amino acid recognition protein, SEQ ID NO: 19 (protein)
chain: MGQTVEKPRVEGPGTGLGGSWRVIVRNDDHNTFDHVARTLARFIPGVSLERGHEIAKVIHTTGRAVVYTGHKEAAEHYWQQLKGAGLTMAPLEQG
B15: PS380: ClpS amino acid recognition protein, SEQ ID NO: 13 (protein)
chain: MGDIYGESNPEEVSCIDSLSEEGNELILFNDNIHTFEYVIDCLVAICSLSYEQASNCAYIVDRKGLCTVKHGSYDELLIMYHALVEKDLKVEIR
B16: PS392: ClpS amino acid recognition protein, SEQ ID NO: 20 (protein)
chain: MSVEIIEKRSTVRKLAPRYRVLLHNDDFNPMEYVVQTLMATVPSLTQPQAVNVMMEAHTNGMGLVIVCALEHAEFYAETLNNHGLGSSIEPDD
B17: Synechococcus elongatus ClpS1: ClpS amino acid recognition protein, SEQ ID NO: 105 (protein, listed as Synechococcus elongatus)
chain: MAVETIQKPETTTKRKIAPRYRVLLHNDDFNPMEYVVMVLMQTVPSLTQPQAVDIMMEAHTNGTGLVITCDIEPAEFYCEQLKSHGLSSSIEPDD
B18: PS395: ClpS amino acid recognition protein, SEQ ID NO: 23 (protein)
chain: MTVSQSKTQGAPAAQSATELEYEGLWRVVVLNDPVNLMSYVVLVFKKVFGFDETTARKHMLEVHEQGRSVVWSGMREKAEAYAFTLQQWHLTTVLEQDEVR
B19: PS394: ClpS amino acid recognition protein, SEQ ID NO: 22 (protein)
chain: MAERRDTGDDEGTGLGIATKTRSKTKKPTPYRVLMLNDDYTPMEFVVLCLQRFFRMNMEEATRVMLHVHQKGVGVCGVFSYEVAETKVGQVIDFARANQHPLQCTLEKA
B20: Escherichia coli ClpS: ClpS amino acid recognition protein, SEQ ID NO: 108 (protein, listed as Escherichia coli)
chain: MGKTNDWLDFDQLAEEKVRDALKPPSMYKVILVNDDYTPMEFVIDVLQKFFSYDVERATQLMLAVHYQGKAICGVFTAEVAETKVAMVNKYARENEHPLLCTLEKA
B21: Escherichia coli ClpS M40A: ClpS amino acid recognition protein, SEQ ID NO: 109 (protein, listed as Escherichia coli)
chain: B20 chain with M40A
B22: Agrobacterium tumifaciens ClpS1 (atClpS1): ClpS amino acid recognition protein, SEQ ID NO: 93 (protein, listed as Agrobacterium tumifaciens)
chain: MIAEPICMQGEGDGEDGGTNRGTSVITRVKPKTKRPNLYRVLLLNDDYTPMEFVIHILERFFQKDREAATRIMLHVHQHGVGECGVFTYEVAETKVSQVMDFARQHQHPLQCVMEKK
B23: atClpS1 C7S: ClpS amino acid recognition protein, SEQ ID NO: 103 (protein)
chain: B22 chain with C7S
B24: atClpS1 C7S, C84S, C112S: ClpS amino acid recognition protein, SEQ ID NO: 104 (protein)
chain: B22 chain with C7S, C84S, C112S
B25: PS218: ClpS amino acid recognition protein, SEQ ID NO: 98 (protein)
chain: B22 chain with M51F, E52Q, T70W, M73T
B26: Saccharomyces cerevisiae GID10: amino acid recognition protein, SEQ ID NO: 125 (protein, listed as Saccharomyces cerevisiae)
chain: MTSLNIMGRKFILERAKRNDNIEEIYTSAYVSLPSSTDTRLPHFKAKEEDCDVYEEGTNLVGKNAKYTYRSLGRHLDFLRPGLRFGGSQSSKYTYYTVEVKIDTVNLPLYKDSRSLDPHVTGTFTIKNLTPVLDKVVTLFEGYVINYNQFPLCSLHWPAEETLDPYMAQRESDCSHWKRFGHFGSDNWSLTERNFGQYNHESAEFMNQRYIYLKWKERFLLDDEEQENQMLDDNHHLEGASFEGFYYVCLDQLTGSVEGYYYHPACELFQKLELVPTNCDALNTYSSGFEIA

Tested on: amino acid at a terminal position of a polypeptide
Conditions: Table 1, ClpS proteins; amino acid at terminal position; inferred from literature and/or demonstrated by the inventors; cited from earlier work

Question: Which “Binding Pref.” value does the source give for B1 here?
Answer: F, W, Y, L

Question: With B2 as the molecule, how does the “Binding Pref.” value read?
Answer: F, Y, W, L

Question: For B3, which “Binding Pref.” value is on record?
Answer: F, Y, L

Question: For B4, which “Binding Pref.” value is on record?
Answer: F, Y, L

Question: Which “Binding Pref.” value does the source give for B5 here?
Answer: F, Y, L

Question: Which “Binding Pref.” value does the source give for B6 here?
Answer: F, W, Y

Question: Which “Binding Pref.” value does the source give for B7 here?
Answer: F, W, Y

Question: For B8, which “Binding Pref.” value is on record?
Answer: F, W, Y

Question: Which “Binding Pref.” value does the source give for B9 here?
Answer: F, W, Y, L

Question: For B10, which “Binding Pref.” value is on record?
Answer: F, Y, W, L

Question: For B11, which “Binding Pref.” value is on record?
Answer: F, W, L

Question: For B12, which “Binding Pref.” value is on record?
Answer: F, Y, W, L

Question: For B13, which “Binding Pref.” value is on record?
Answer: F, W, Y, L

Question: For B14, which “Binding Pref.” value is on record?
Answer: F, Y, W, L

Question: Which “Binding Pref.” value does the source give for B15 here?
Answer: F, W

Question: For B16, which “Binding Pref.” value is on record?
Answer: F, Y, W

Question: For B17, which “Binding Pref.” value is on record?
Answer: F, W, Y

Question: Which “Binding Pref.” value does the source give for B18 here?
Answer: F, Y, W, L

Question: For B19, which “Binding Pref.” value is on record?
Answer: F, Y, W, L

Question: Which “Binding Pref.” value does the source give for B20 here?
Answer: F, W, Y, L

Question: Which “Binding Pref.” value does the source give for B21 here?
Answer: F, W, Y, L

Question: For B22, which “Binding Pref.” value is on record?
Answer: F, W, Y, L

Question: With B23 as the molecule, how does the “Binding Pref.” value read?
Answer: F, W, Y, L

Question: Which “Binding Pref.” value does the source give for B24 here?
Answer: F, W, Y, L

Question: Which “Binding Pref.” value does the source give for B25 here?
Answer: F, W, Y, L

Same assay, conditions: Table 2; amino acid at terminal position (phosphotyrosine also internal); inferred from literature and/or demonstrated by the inventors; cited from earlier work

Question: With B26 as the molecule, how does the “Binding Pref.” value read?
Answer: P, M, V
